Measurements from US11982671B2, “Identification of a T cell epitope of Prevotella copri that induces T cell responses in patients with rheumatoid arthritis” (priority 2016, dated 2024).

System: serum IgG and IgA antibodies
Assay: ELISA for serum IgG and IgA antibodies to the P. copri protein (Pc-p27)
Format: binding, human
Description: ELISA for serum IgG and IgA antibodies to the P. copri protein (Pc-p27). ELISA plates were coated with 0.25 μg/ml of the P. copri protein Pc-p27 (GenScript USA Inc, Piscataway, N.J.) overnight at 4° C. Subsequent incubations and washes were performed at room temperature. After washing with phosphate buffered saline with 0.05% Tween-20 (PBST), the plates were incubated with blocking buffer (5% nonfat dry milk in PBST) for one hour. Afterwards, 100 μl of each patient's serum sample (diluted 200-fold) was added in duplicate wells for 1.5 hours, followed by horseradish-peroxidase (HRP)-conjugated goat anti-human IgG (sc-2453, Santa Cruz Biotech) or HRP-conjugated goat anti-human IgA (Bio-Rad, Hercules, Calif.) and then TMB substrate (BD, San Diego, Calif.). For inter-plate standardization, 2 control samples were included on each plate.

B1: Pc-p27: full length 27-kD protein of P. copri, recombinant (GenScript) (protein, listed as Prevotella copri)
chain: MKRIILILTVLLAMLGQVAYAQKTCVIASAENHVPIREALIHTNNNHWARTDYRGYWTMRYQFDSATVSKPGFMKATIRYKELPDTLFLLPDAKQLGEVTVWGKNQEGIKNMEEDIQEKINSLPTSSTGIGFDAFGWMDKQGKRDKKHLQQAKKVFEKMEHKDPVVAAYEKATGKKYELTNPYDVSAFKKDPPSEMATEEKKATSDAESKSKKKENPEKYAQE
49 CRA patients
  patients with positive IgG antibody responses: 20%
78 NORA patients, serum diluted 200-fold
  patients with IgG antibody responses >3 SD above HC: 13%
127 RA patients
  patients with IgG or IgA antibody responses: 24%
Both the NORA and CRA groups
  patients with IgA antibody responses: About 10%
